Laboratory results: article PMC11659893

Tests used:
[1] = target: Tachlorophyllase H76S/E79S/C270S triple variant (Triticum aestivum); experiment: SEC-MALS + other: dynamic light scattering
[2] = target: Triticum aestivum chlorophyllase (Tachlorophyllase), wild type (Triticum aestivum); experiment: SEC-MALS + other: dynamic light scattering

stoichiometry N [1] | stoichiometry N [2] | Substance
2 | – | Tachlorophyllase H76S/E79S/C270S triple variant (enzyme)
– | 2 | Triticum aestivum chlorophyllase (Tachlorophyllase), wild type (enzyme)
